Source: article PMC3347997, “Identification of basepairs within Tn5 termini that are critical sfor H-NS binding to the transpososome and regulation of Tn5 transposition”

T1: H-NS (Escherichia coli, UniProt P0ACF8 1-137)
T1 sequence: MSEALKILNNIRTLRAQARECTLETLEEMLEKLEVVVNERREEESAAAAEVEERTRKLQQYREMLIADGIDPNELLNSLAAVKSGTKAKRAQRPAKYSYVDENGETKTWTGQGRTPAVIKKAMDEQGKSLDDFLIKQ

B1: OE 53-bp transposon end (dsDNA)
DNA 1: CCCTGCAGGTCGACTGACTCTTATACACAAGTTGAGTGAGTGAGCATGCA
DNA 2: ACATGCATGCTCACTCACTCAACTTGTGTATAAGAGTCAGTCGACCTGCAGGG

Tests used:
[1] = target: H-NS;Tn5 transposase (Escherichia coli;Tn5) (UniProt P0ACF8+Q46731); assay: EMSA; details: 2 nM 32P-DNA, 200 nM transposase (400 nM for ME 8/9), H-NS normally 23-849 nM added simultaneously, no divalent metal, 30 min 37 C, 5% native PAGE; buffer …
Sequence of H-NS;Tn5 transposase (Escherichia coli;Tn5) (Q46731 whole entry, chain 2 of 2, one chain of several): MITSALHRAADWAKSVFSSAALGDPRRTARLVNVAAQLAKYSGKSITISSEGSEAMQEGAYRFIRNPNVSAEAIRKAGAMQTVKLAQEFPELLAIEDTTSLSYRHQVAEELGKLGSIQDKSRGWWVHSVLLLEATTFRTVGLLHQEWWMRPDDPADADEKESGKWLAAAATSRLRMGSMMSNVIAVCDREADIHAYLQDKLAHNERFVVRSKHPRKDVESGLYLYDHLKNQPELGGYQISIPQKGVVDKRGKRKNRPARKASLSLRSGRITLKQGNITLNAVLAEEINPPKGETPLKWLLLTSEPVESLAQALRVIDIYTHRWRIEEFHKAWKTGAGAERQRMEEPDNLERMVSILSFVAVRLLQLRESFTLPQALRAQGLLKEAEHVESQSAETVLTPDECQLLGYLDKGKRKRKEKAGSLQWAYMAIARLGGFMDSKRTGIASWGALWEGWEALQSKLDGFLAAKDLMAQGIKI

H-NS = target: T1, H-NS; assay: EMSA; no appreciable H-NS binding to OE DNA not associated with transposase; no divalent metal; 2 nM 32P-DNA, 200 nM transposase (400 nM for ME 8/9), H-NS normally 23-849 nM added simultaneously, no divalent metal, 30 min 37 C, 5% native PAGE; buffer, salt and pH not given (cited); details: protein: recombinant; chain copies: 2; label: 5' 32P; as printed: 3 nt 5' overhang on strand 2; described as 53 bp duplex; two copies per transpososome

Molecule	Kd [1]	binding result (H-NS)
CCCTGCAGGTCGACTGTCTCTTATACACATCTTGAGTGAGTGAGCATGCA / ACATGCATGCTCACTCACTCAAGATGTGTATAAGAGACAGTCGACCTGCAGGG [WT ME 53-bp transposon end]	51 nM	–
CCCTGCAGGTCGACTGACTCTTATACACAAGTTGAGTGAGTGAGCATGCA / ACATGCATGCTCACTCACTCAACTTGTGTATAAGAGTCAGTCGACCTGCAGGG [OE 53-bp transposon end]	232 nM	–
B1	–	no binding
